One block for each molecule: values may come before it.
What was measured:
[1] = target: His-PtMCM-Strep (Picrophilus torridus MCM, recombinant) (Picrophilus torridus); experiment: SEC; Superdex 200 10/300 GL calibrated with protein standards, 50 mM potassium phosphate pH 7.4, 150 mM NaCl; molecular weight from retention volume; PtMCM 400 ug, profile unchanged over 1.5 to 5 uM protein
PtMCM = target: T1, PtMCM (Picrophilus oshimae, UniProt A0A8G2FX57, K337A); experiment: ATP hydrolysis, gamma-32P ATP tracer, TLC; type: biochemical; conditions: pH 6.0, 55 °C, 10 or 100 uM ATP, no DNA, 800 nM protein, 60 min; Walker A mutant
T1 construct: gene SAMN02745355_1050; full length, N-terminal 6xHis and C-terminal Strep-tag kept; E. coli BL21 Codon Plus; tagged monomer 81 kDa (untagged ~76 kDa); homohexamer

[2] = target: His-PtGINS (Picrophilus torridus GINS, recombinant) (Picrophilus torridus); experiment: SEC; Superdex 200 10/300 GL calibrated with protein standards, 50 mM potassium phosphate pH 7.4, 150 mM NaCl; molecular weight from retention volume; PtMCM 400 ug, profile unchanged over 1.5 to 5 uM protein
[3] = target: His-PtMCM-Strep (Picrophilus torridus MCM, recombinant) (Picrophilus torridus)
[4] = target: His-PtMCM-Strep (Picrophilus torridus MCM, recombinant) (Picrophilus torridus); remark: listed apart in the source
[5] = target: His-PtMCM-Strep (Picrophilus torridus MCM, recombinant) (Picrophilus torridus); remark: listed apart in the source

T1 sequence (A0A8G2FX57 entry or part of it K337A): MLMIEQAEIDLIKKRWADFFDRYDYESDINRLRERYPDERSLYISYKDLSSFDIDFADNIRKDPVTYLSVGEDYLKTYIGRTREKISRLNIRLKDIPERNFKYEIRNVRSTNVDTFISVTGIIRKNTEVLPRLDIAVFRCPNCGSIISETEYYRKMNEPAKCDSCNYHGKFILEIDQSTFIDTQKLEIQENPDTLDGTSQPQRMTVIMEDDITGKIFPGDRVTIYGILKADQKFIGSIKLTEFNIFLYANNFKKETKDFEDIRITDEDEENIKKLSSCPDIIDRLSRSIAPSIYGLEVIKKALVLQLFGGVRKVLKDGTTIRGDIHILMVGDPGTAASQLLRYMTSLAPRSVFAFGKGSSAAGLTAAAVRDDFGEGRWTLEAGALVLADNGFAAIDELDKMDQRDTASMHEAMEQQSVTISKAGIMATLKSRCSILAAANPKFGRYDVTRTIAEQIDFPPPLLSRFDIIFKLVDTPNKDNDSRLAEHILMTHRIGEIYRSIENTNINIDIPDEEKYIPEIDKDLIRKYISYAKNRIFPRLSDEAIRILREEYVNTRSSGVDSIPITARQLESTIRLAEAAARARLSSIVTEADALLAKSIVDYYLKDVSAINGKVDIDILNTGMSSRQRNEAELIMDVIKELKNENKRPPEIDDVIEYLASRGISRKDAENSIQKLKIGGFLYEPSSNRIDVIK

stoichiometry N [1]: 6
Molecule: His-PtMCM-Strep (Picrophilus torridus MCM, recombinant) (enzyme)

Molecule: Nc1ncnc2c1ncn2[C@@H]1O[C@H](COP(=O)(O)OP(=O)(O)OP(=O)(O)O)[C@@H](O)[C@H]1O [ATP]
ATP hydrolysis, gamma-32P ATP tracer, TLC (PtMCM): ATPase activity was drastically diminished in case of the mutant PtMCM-K337A

stoichiometry N [2]: 4
ATP hydrolysed during the helicase reaction at pH 4, 5 mM ATP, 500 nM PtMCM and 3000 nM PtGINS, 60 min; fold stimulation by GINS [3]: > 50 fold
MCM ATP hydrolysis with 100 uM ATP, 500 nM PtMCM and 3000 nM PtGINS, pH 3-7, with or without DNA, 60 min; fold increase with GINS at lower pH (no effect at pH 5-7) [4]: 2 fold
ATP hydrolysed during the helicase reaction at pH 6, 3-5 mM ATP, 500 nM PtMCM and 3000 nM PtGINS, 60 min; fold stimulation by GINS [5]: 2 fold
Molecule: His-PtGINS (Picrophilus torridus GINS, recombinant) (natural protein)

Reference: PMC4356968, “Characterization of the MCM homohexamer from the thermoacidophilic euryarchaeon Picrophilus torridus” (Scientific Reports, 2015)
